Measured values published in article PMC8599648 (Molecular microbiology, 2021).
Substitutions are numbered along the chain they refer to. In names and notes the source's numbering stands.

B1: YnfK I184Y (enzyme, E. coli (strain MG1655), UniProt P0A6E9 1-231, looked up)
chain: MLKRFFITGTDTSVGKTVVSRALLQALASQGKTVAGYKPVAKGSKETPEGLRNKDALVLQSVSTIELPYEAVNPIALSEEESSVAHSCPINYTLISNGLANLTEKVDHVVVEGTGGWRSLMNDLRPLSEWVVQEQLPVLMVVGIQEGCINHALLTAQAIANDGLPLIGWVANRINPGLAHYAEYIDVLGKKLPAPLIGELPYLPRAEQRELGQYIRLAMLRSVLAVDRVTV
B2: YnfK T114A (enzyme, E. coli (strain MG1655), UniProt P0A6E9 1-231, looked up)
chain: B1 chain with T114A, Y184I
B3: YnfK S13E (enzyme, E. coli (strain MG1655), UniProt P0A6E9 1-231, looked up)
chain: B1 chain with S13E, Y184I
B4: YnfK S13E/I184Y (enzyme, E. coli (strain MG1655), UniProt P0A6E9 1-231, looked up)
chain: B1 chain with S13E
B5: YnfK T114A/I184Y (enzyme, E. coli (strain MG1655), UniProt P0A6E9 1-231, looked up)
chain: B1 chain with T114A
B6: FNR D154A (natural protein, E. coli (strain MG1655), UniProt P0A9E5 1-250, looked up)
chain: MIPEKRIIRRIQSGGCAIHCQDCSISQLCIPFTLNEHELDQLDNIIERKKPIQKGQTLFKAGDELKSLYAIRSGTIKSYTITEQGDEQITGFHLAGDLVGFDAIGSGHHPSFAQALETSMVCEIPFETLDDLSGKMPNLRQQMMRLMSGEIKGAQDMILLLSKKNAEERLAAFIYNLSRRFAQRGFSPREFRLTMTRGDIGNYLGLTVETISRLLGRFQKSGMLAVKGKYITIENNDALAQLAGHTRNVA

Target: the molecule itself
Test: cross-linking

Protein | binding result
B1 | binds
B2 | binds
B3 | binds
B4 | binds
B5 | binds

Target: the molecule itself
Test: SEC

Protein | stoichiometry N
B6 | 2
